US8691960B2, “Oxidoreductases for enantioselective reactions” (Duke University, priority 2012, dated 2014)
Positions count from the first letter of the chain named. Names and notes keep the numbering of the source. “Also recorded” adds a separate entry of the source.

How the values were obtained:
Type in all cases: biochemical
[1] = NADH oxidation rate of purified HIDH enzymes with 2-oxoadipate (fluorescence / UV 340 nm); details: 100 μM NADH
Procedure: (§1) NADH, 2-oxoadipate, 2-oxoglutarate, 2-heptandioate, and MgCl2 were from Sigma. Standard reaction mixes contained 15 mM 2-oxoadipate, 100 μM NADH, and a reaction buffer with final concentrations of 20 mM MgCl2 and 500 mM HEPES, pH 7.3. NADH oxidation was monitored by the decrease in fluorescence with excitation of 340 nm and emission of 450 nm on a PolarSTAR Optima plate reader (BMG Labtech). Fluorescence monitored reactions were carried out in 10-μL volumes in a 384-well black microplate (Greiner 788076) covered with clear optical film. The levels of fluorescence were converted to NADH concentrations based on standards of NADH in reaction buffer containing BSA. Reactions with high amounts of NADH were monitored by the UV absorbance of NADH at 340 nm in 40-μL reaction volumes in clear 96-well plates.
(§2) Reaction rates are NADH oxidation per unit time per unit of purified enzyme or crude lysate and 1 Unit (U) is 1 μmolNADH min^−1 mgenzyme^−1. Rates are initial rates calculated by least squares linear regression on the first 10 minutes of the reaction. For KM determination, concentrations of substrate/cofactors at least 5×-higher than the KM were used, while the species of interest was varied in concentration; substrate/cofactor concentrations: 500 μM NADH; 15 mM 2-oxoadipate; 20 mM MgCl2. Reported α-hydroxyadipate (2-hydroxy adpic acid) Vmax values were obtained from 2-oxoadipate KM determination experiments. Michaelis-Menten KM and Vmax parameters were estimated by fitting data to a curve using nonlinear regression in GraphPad Prism 5.0 (GraphPad Software, La Jolla, Calif.).
(§3) Assays were performed with 40 ng/μL enzyme, 15 mM 2-oxoadipate, 100 μM NADH, 20 mM MgCl2 and 100 mM HEPES, pH 7.3 in 10 or 20 μL volumes in 384-well black microplates. NADH concentration was monitored by the decrease in fluorescence (excitation wavelength: 340 nm; emission wavelength: 450 nm) on a fluorescent plate reader. The fluorescence intensities were converted to NADH concentrations based on NADH standards. Reactions with high amounts of NADH (>300 μM) were monitored by the UV absorbance of NADH at 340 nm in a 40 μL reaction volume in a clear 96-well plate on the same plate reader. Reactions with ScHIDH were carried out at 25° C. and reactions with TtHIDH were carried out at 45° C. Reported rates are initial rates from the first 10 minutes of reaction. For KM determination, concentrations of substrate at least 5×-higher than the KM were used (for NADH, 500 μM; for 2-oxoadipate, 15 mM) while the substrate of interest was varied in concentration. KM and Vmax were estimated by fitting data to equation (1) using nonlinear regression, where x is substrate concentration and y is the rate. y=Vmax·x/KM+x (1) Rate data for ScHIDH-R143C, -R143H, and -R143K are summarized in Table 3.

[2] = NADH oxidation with 2-oxoadipate plus CO2 added as NaHCO3 (reductive carboxylation)
Procedure: as §1, §2

[3] = Enantiospecific LC-MS/MS quantification of (R)- and (S)-2-hydroxyadipate product; details: for Enantiomeric Excess: Table 3, (R)-2-hydroxyadipate product
Procedure: Quantitative, enantiospecific LC-MS/MS was performed based on the procedure described for 2-hydroxyglutarate. Jin et al., PLoS one 6, e16812: 1-8 (2011); Struys, et al., Clin. Chem. 50: 1391-1395 (2004). To 20 μL of reaction mix, 2 μL of 130 μg/mL of a racemic mixture of [3,3,4,4-^2H4]-2-hydroxyglutarate (internal standard) in water was added and the mixture dried by vacuum centrifuge (50° C., 15 min). The dry residue was treated with 50 mg/mL freshly prepared diacetyl-L-tartaric anhydride (Sigma) in dichloromethane/glacial acetic acid (4:1 by volume) and heated (75° C., 30 min). After drying (50° C., 15 min) the residue was dissolved in 100 μL of LC mobile phase A (see below) for analysis. An Agilent 1200 series HPLC (Santa Clara, Calif.) was used for liquid chromatography (LC) and a Sciex/Applied Biosystems API 3200 QTrap (Carlsbad, Calif.) was used for triple quadrupole mass spectrometry (MS/MS). Mobile phase A: water, 3% acetonitrile, 280 μL ammonium hydroxide (^˜25%), pH adjusted to 3.6 with formic acid (^˜98%). Mobile phase B: methanol. Analytical column: Kinetex C-18, 150×4.6 mm, 2.6 μm, and SafeGuard C-18 4×3 mm guard-column from Phenomenex (Torrance, Calif.). Column temperature: 45° C. Elution gradient at 1 mL/min flow rate: 0-1 min 0% B, 1-2 min 0-100% B, 2-3.5 min 100% B, 3.5-4 min 100-0% B, 4-10 min 0% B. Injection volume: 10 μL. Q1/Q3 (m/z) transitions were monitored: 377/161, 2-hydroxyadipate (2HA) and 367/151, [3,3,4,4-^2H4]-2-hydroxyglutarate (2HG-d4). To calibrate, 0, 0.16, 0.54, 1.8, 6, and 20 μg/mL 2-hydroxyadipate (Sigma), synthesized as described above, was analyzed in reaction buffer. (R)- and (S)-enantiomers were discriminated based on time of elution from the HPLC column, using the relative elution time for (R)-2-hydroxyglutarate compared to the racemic mixture of 2-hydroxyglutarate described previously to identify the (R)-2-hydroxyadipate enantiomer. Jin et al., PLoS one 6, e16812: 1-8 (2011). Standards were analyzed alongside experimental samples. Accuracy acceptance criteria were 85% for all but the lowest level (0.16 μg/mL, 80%).

[4] = 2-hydroxyadipate dehydrogenase activity of crude bacterial lysates expressing ScHIDH mutants; details: for reaction rate relative to ScHIDH-R143H: crude lysates, 15 mM 2-oxoadipate; for 2-hydroxyadipate dehydrogenase activity in crude bacterial lysates: 100 μM NADH substrate
Procedure: To obtain crude lysates, 0.5 mL of starter cultures generated as described above were added to 4.5 mL LB-Amp, shaken for 2 h, and shaken for an additional 2 h after induction with 1 mM IPTG. Pellets from these cultures were harvested by centrifugation at 4500×g at 4° C. These pellets were resuspended into 500 μL of Buffer A (0.2% Triton-X 100, 1 mM PMSF, 0.5 mM EDTA, 10 mM Tris, pH 7.5) on ice and sonicated for 6-cycles of 15 seconds each on ice on a Sonifer 250 (Branson). This was then spun down at 13,000×g at 4° C. for 15 min and the cleared lysates were normalized with additional lysis buffer to 700 ng/4 and stored at −80° C. as aliquots. Protein concentrations were determined using the BioRad Protein Assay reagent according to the manufacturer's instructions.
as §1, §2

[5] = Kinetic characterization of ScHIDH mutants: KM 2-oxoadipate and Vmax; details: for Km / Vmax: Table 3; for Km: 40 ng/μL enzyme, 500 μM NADH, 20 mM MgCl2, pH 7.3, 25° C.; for Vmax: from 2-oxoadipate KM experiments
Procedure: as §2, §3

[6] = Kinetic characterization of ScHIDH mutants: KM NADH; details: Table 3; 15 mM 2-oxoadipate, 20 mM MgCl2, pH 7.3, 25° C.
Procedure: as §2, §3

B1: TtHIDH-R118H: Thermus thermophilus homoisocitrate dehydrogenase R118H mutant (protein)
chain: MAYRICLIEGDGIGHEVIPAARRVLEATGLPLEFVEAEAGWETFERRGTSVPEETVEKILSCHATLFGAATSPTRKVPGFFGAIRYLRRRLDLYANVRPAKSRPVPGSRPGVDLVIVHENTEGLYVEQERRYLDVAIADAVISKKASERIGRAALRIAEGRPRKTLHIAHKANVLPLTQGLFLDTVKEVAKDFPLVNVQDIIVDNCAMQLVMRPERFDVIVTTNLLGDILSDLAAGLVGGLGLAPSGNIGDTTAVFEPVHGSAPDIAGKGIANPTAAILSAAMMLDYLGEKEAAKRVEKAVDLVLERGPRTPDLGGDATTEAFTEAVVEALKSL
modifications: TtHIDH R118H polypeptide
notes: Thermus thermophilus homoisocitrate dehydrogenase R118H mutant
For B1, the “decrease of NADH concentration after 2 h” value ([1]; TtHIDH, 15 mM 2-oxoadipate, 45° C., 2 h) was 61.3 µM, the “initial rate of NADH oxidation” value ([1]; TtHIDH, 15 mM 2-oxoadipate, 45° C., U = μmol NADH min^−1 mg^−1) was 0.058±0.0031 U and the “rate of NADH consumption with NaHCO3 added” value ([2]; TtHIDH, 2-oxoadipate and NADH, CO2 added as NaHCO3) was 0.059 U. For the same molecule, the “increase of (R)-2-hydroxyadipate concentration after 2 h” value ([3]; TtHIDH, 100 μM NADH, 15 mM 2-oxoadipate, 45° C., 2 h) was 61.3 µM and the “increase of (S)-2-hydroxyadipate” value ([3]; TtHIDH, same reaction, 2 h) was “No increase”.

B2: ScHIDH-R143K: Saccharomyces cerevisiae homoisocitrate dehydrogenase R143K mutant (protein)
chain: MFRSVATRLSACRGLASNAARKSLTIGLIPGDGIGKEVIPAGKQVLENLNSKHGLSFNFIDLYAGFQTFQETGKALPDETVKVLKEQCQGALFGAVQSPTTKVEGYSSPIVALRREMGLFANVRPVKSVEGEKGKPIDMVIVKENTEDLYIKIEKTYIDKATGTRVADATKRISEIATRRIATIALDIALKRLQTRGQATLTVTHKSNVLSQSDGLFREICKEVYESNKDKYGQIKYNEQIVDSMVYRLFREPQCFDVIVAPNLYGDILSDGAAALVGSLGVVPSANVGPEIVIGEPCHGSAPDIAGKGIANPIATIRSTALMLEFLGHNEAAQDIYKAVDANLREGSIKTPDLGGKASTQQVVDDVLSRL
modifications: ScHIDH R143K polypeptide
notes: Saccharomyces cerevisiae homoisocitrate dehydrogenase R143K mutant
For B2, the Enantiomeric Excess [3] was > 92%, the “reaction rate relative to ScHIDH-R143H” value ([4]; 800 μM NADH) was 83.0±0.03% and the “reaction rate relative to ScHIDH-R143H” value ([4]; standard conditions of 100 μM NADH) was 3.6±0.3%. It also gave a Km [5] of 9.4 mM, a Vmax [5] of 0.011 µmol/min/mg and a Km [6] of 1.1 mM.

B3: ScHIDH-R115Q: Saccharomyces cerevisiae homoisocitrate dehydrogenase R115Q mutant (protein)
chain: B2 chain with R115Q, K143R
modifications: ScHIDH R115Q polypeptide
notes: Saccharomyces cerevisiae homoisocitrate dehydrogenase R115Q mutant
With B3 the “NADH oxidation by purified enzyme in the presence of 2-oxoadipate” value ([1]; standard reaction conditions, 10 mM 2-oxoadipate, 20 mM MgCl2) was “behaved essentially the same as wild type; also recorded: did not oxidize NADH”, the “NADH oxidation when CO2 was provided as NaHCO3” value ([2]; purified enzyme, 15 mM 2-oxoadipate, 100 μM NADH, 0-42 mM NaHCO3) was “did oxidize NADH” and the “2-hydroxyadipate dehydrogenase activity in crude bacterial lysates” value (“2-hydroxyadipate dehydrogenase activity” below) [4] was “did not demonstrate 2-hydroxyadipate dehydrogenase activity”.

B4: ScHIDH-R143C: Saccharomyces cerevisiae homoisocitrate dehydrogenase R143C mutant (protein)
chain: B2 chain with K143C
modifications: ScHIDH R143C polypeptide
notes: Saccharomyces cerevisiae homoisocitrate dehydrogenase R143C mutant
With B4 the Enantiomeric Excess [3] was > 99.2%, the “2-hydroxyadipate dehydrogenase activity” value [4] was “did not demonstrate 2-hydroxyadipate dehydrogenase activity” and the Km [5] was 11 mM. For the same molecule, the Vmax [5] was 0.065 µmol/min/mg, the “maximal turnover compared with other ScHIDH mutants” value ([5]; in vitro data) was “highest maximal turnover of any ScHIDH mutant assayed” and the Km [6] was 0.32 mM.

B5: ScHIDH-Y150D: Saccharomyces cerevisiae homoisocitrate dehydrogenase Y150D mutant (protein)
chain: B2 chain with K143R, Y150D
modifications: ScHIDH Y150D polypeptide
notes: Saccharomyces cerevisiae homoisocitrate dehydrogenase Y150D mutant
In the case of B5, the “2-hydroxyadipate dehydrogenase activity” value [4] is reported as “did not demonstrate 2-hydroxyadipate dehydrogenase activity”.

B6: ScHIDH-V111D: Saccharomyces cerevisiae homoisocitrate dehydrogenase V111D mutant (protein)
chain: B2 chain with V111D, K143R
modifications: ScHIDH V111D polypeptide
notes: Saccharomyces cerevisiae homoisocitrate dehydrogenase V111D mutant
With B6 the “2-hydroxyadipate dehydrogenase activity” value [4] was “did not demonstrate 2-hydroxyadipate dehydrogenase activity”.

B7: ScHIDH-R114Q: Saccharomyces cerevisiae homoisocitrate dehydrogenase R114Q mutant (protein)
chain: B2 chain with R114Q, K143R
modifications: ScHIDH R114Q polypeptide
notes: Saccharomyces cerevisiae homoisocitrate dehydrogenase R114Q mutant
For B7, the “2-hydroxyadipate dehydrogenase activity” value [4] was “did not demonstrate 2-hydroxyadipate dehydrogenase activity”.
